From article PMC8962522 (2022)

Target: CD44v3 (Homo sapiens, UniProt P16070)
Assay: MST

Sequence of CD44v3 (P16070 21-649): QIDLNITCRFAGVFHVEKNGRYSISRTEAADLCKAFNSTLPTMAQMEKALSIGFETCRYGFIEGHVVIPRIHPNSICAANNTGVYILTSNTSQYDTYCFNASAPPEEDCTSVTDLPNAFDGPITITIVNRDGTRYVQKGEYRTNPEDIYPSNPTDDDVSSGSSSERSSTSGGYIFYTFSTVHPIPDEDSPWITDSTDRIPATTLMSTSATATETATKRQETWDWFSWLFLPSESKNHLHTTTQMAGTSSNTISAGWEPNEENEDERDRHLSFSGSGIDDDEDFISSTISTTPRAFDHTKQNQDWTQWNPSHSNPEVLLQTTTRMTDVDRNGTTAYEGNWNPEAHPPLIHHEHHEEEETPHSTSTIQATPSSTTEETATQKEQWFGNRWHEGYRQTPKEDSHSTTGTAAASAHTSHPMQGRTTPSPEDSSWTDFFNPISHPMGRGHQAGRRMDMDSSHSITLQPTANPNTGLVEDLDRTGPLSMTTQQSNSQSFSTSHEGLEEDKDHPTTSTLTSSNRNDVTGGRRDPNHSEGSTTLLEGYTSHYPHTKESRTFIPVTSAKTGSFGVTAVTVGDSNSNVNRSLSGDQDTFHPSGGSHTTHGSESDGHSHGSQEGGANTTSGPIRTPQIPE

Kd: 9.47 nM
B1: TrkA (protein)
chain: AAPCPDACCPHGSSGLRCTRDGALDSLHHLPGAENLTELYIENQQHLQHLELRDLRGLGELRNLTIVKSGLRFVAPDAFHFTPRLSRLNLSFNALESLSWKTVQGLSLQELVLSGNPLHCSCALRWLQRWEEEGLGGVPEQKLQCHGQGPLAHMPNASCGVPTLKVQVPNASVDVGDDVLLRCQVEGRGLEQAGWILTELEQSATVMKSGGLPSLGLTLANVTSDLNRKNVTCWAENDVGRAEVSVQVNVSFPASVQLHTAVEMHHWCIPFSVDGQPAPSLRWLFNGSVLNETSFIFTEFLEPAANETVRHGCLRLNQPTHVNNGNYTLLAANPFGQASASIMAAFMDNPFEFNPEDPIPVSFSPVDTNSTSGDPVEKKDETPFGVSVAVG
modifications: NGF
